In patent US5830995 (Bristol-Myers Squibb Company, dated 1998):

Molecular target: T1, human EGF receptor (human, UniProt P00533)
Assay: competition of 125I-EGF binding to NRHER5 membranes

maximum competition	Molecule
85%	native amphiregulin (AR) purified from TPA-treated MCF-7 cells (ligand)

Molecular target: T1, human EGF receptor
Assay: competition of 125I-EGF binding to NRHER5 membranes, 50% inhibition

Molecule	IC50
gp35, 35-40 kD soluble high molecular weight form of human AR (ligand)	> 300 nM
bacterially produced AAAT (ligand) MVVKPPQNKTESENTSDKPKRKKKGGKNGKNRRNRKKKNPCNAEFQNFCIHGECKYIEHLEAVTCKCQQEYFGERCGEKDLLA	~1.5 nM
recombinant human AR 18 kD purified from CHO/ARGE 2a cells (ligand, N-linked glycosylation at Asn-113) NKTESEKTSDKPKRKKKGGKNGKNRRNRKKKNLCDTEFQNFCIHGKCTFLEQLETVSCQCYPEYFGERCGEKSMKTQSMVD	~100 nM

The next lines start with the values.

IC50	Molecule
100 nM	native amphiregulin (AR) purified from TPA-treated MCF-7 cells (ligand)
~150 nM	bacterially produced AR-SMKT (ligand) MVVKPPQNKTESENTSDKPKRKKKGGKNGKNRRNRKKKNPCNAEFQNFCIHGECKYIEHLEAVTCKCQQEYFGERCGEKSMKT
